Biological target: the molecule itself
Test: native gel or EMSA

B1: Ugo1 precursor, 35S-labeled (natural protein, S. cerevisiae, UniProt Q03327 1-502, looked up)
chain: MNNNNVTEATSRAQIRPYYDPDSFNAGYSAVFKPDEGVVDPHGYTIASKLNVINSSPTTKRMANALFKSSPMKKLSNSVNDGLSLEGSNGEITGLNNFEWAELVNIQKWRKIFEQLLDMFFRKYFQLLIQQPFDVARLLIQVGEFKIFKTTVDTNKPQAPIILRDEEGDGAAREGEEDAYDEEEIDFFPIERKIAEANSTAPIMAEETDHSHHEPTDISLTIAPQSLHTIDVINALFDQEGIRGLWKANNTTFIYNFLSLSIDTWFTGLLSSFLGVPDPYFMEVINSPDISKSFILALGAGVFTSIILLPVDLIRTRLIVTSFKKKKNVKTDGKNMVTNTRSLRQLIRCWSWRKNGVSIPLDMWSLTILQSINNSFFNKLFDLVIYNQFHIEKYSQTVMYNTMKFFSKSLELFIKLPLENLLRRCQLNYLLNDQRLSFKVDSTELIVKPKKYNGIWDVIRNNSNTNRGQLWNGWKVGVISLICGYGLQMMNKVDINMEQEKF
modifications: [35S]methionine
Q: With B1 as the protein, how does the “stoichiometry N” value read?
A: 2
